Results on one molecule are retold here after patent CN102050877A (NAT ENGINEERING RES CT OF ANTIBODY MEDICINE SHANGHAI CO LTD, dated 2011).

This assay concerns the target T1, 人CD20 (on Raji cells) (human, UniProt P11836 1-297).
T1 construct: whole, on cells; No recombinant CD20 was used; also called Raja
T1 sequence (looked up): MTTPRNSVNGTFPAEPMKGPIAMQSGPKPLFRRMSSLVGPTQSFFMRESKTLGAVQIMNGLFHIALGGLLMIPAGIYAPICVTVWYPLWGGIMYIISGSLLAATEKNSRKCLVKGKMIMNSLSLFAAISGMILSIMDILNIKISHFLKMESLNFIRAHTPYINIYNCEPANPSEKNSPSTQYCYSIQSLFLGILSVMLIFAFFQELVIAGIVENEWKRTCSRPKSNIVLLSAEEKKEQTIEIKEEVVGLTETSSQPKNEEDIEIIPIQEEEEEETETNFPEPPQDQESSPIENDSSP
In words: in vitro antigen binding on Raji cells (flow cytometry). (Flow cytometry measures light scatter and fluorescence of single cells or particles in a stream.)

B1: 抗人CD20人源化抗体hu8E4 (hu8E4Hb/hu8E4Lb) (antibody, human IgG1, kappa, V domains shown)
VH: EVQLVESGGGLVQPGGSLRLSCAASGFTFTSYNMHWVRQAPGKGLEWIGAIYPENGDTSYNQKFKDRATLTADKSKNTAYLQMNSLRAEDTAVYYCARWHYYGNGGALDYWGQGTLVTVSS
VL: DIQMTQSPSSLSASVGDRVTITCRASGNIHNYLAWYQQKPGKAPKLLVHNAKTLPDGVPSRFSGSGSGTDFTLTISSLQPEDFATYYCQQFWSNPWTFGQGTKVEIKR
notes: LCDR1 RASGNIHNYLA, LCDR2 NAKTLPD, LCDR3 QQFWSNPWT; The expression constructs carried signal peptides; also called hu8E4VHb/hu8E4VLb
For the molecule B1, the binding result is on record as “binds”.
